Laboratory results reported in patent publication US8216581 (University of Pennsylvania, dated 2012).
Positions count from the first letter of the chain named.

B1: H40L36 (Fab, V domains shown)
VH: QVQLVESGGGVVQPGRSLRLSCAASTFTFSNYAMHWVRQAPGKGLEWVAVISYDGSNKYYADSVKGRFTISRDNSKNTLYLQMNSLRPEDTAVYYCARGGVAAFDYWGQGTLVTVSS
VL: not shown
notes: Soluble Fab
B2: H37L40 (Fab, V domains shown)
VH: B1 VH with T26G
VL: DIVMTQSPLSLSVSPGEPASISCRSSQSLLDSNGHNFLDWYLQKPGQSPQLLIFVGSYRALGVPDRFTGSGTGTDFTLKISRVEPEDVGVYYCMQGLQAPITFGQGTKLDIK
notes: Soluble Fab
B3: H38L55 (Fab, V domains shown)
VH: B1 VH with T26G, A102G
VL: DIVMTQSPLSLPVTPGEPASISCRSNQSVLHSNGRHYLDWYLQKPGQSPQLLIYMVFNRASGVPDRFSGSGSGTDFTLKISRVESEDVGVYYCMQAQQTPVTFGQGTRLDIK
notes: Soluble Fab
B4: H38L49 (Fab, V domains shown)
VH: B1 VH with T26G, A102G
VL: not shown
notes: Soluble Fab
B5: H37L48 (Fab, V domains shown)
VH: B1 VH with T26G
VL: not shown
notes: Soluble Fab
B6: H41L51 (Fab, V domains shown)
VH: B1 VH with T26G, F27S, N31Y
VL: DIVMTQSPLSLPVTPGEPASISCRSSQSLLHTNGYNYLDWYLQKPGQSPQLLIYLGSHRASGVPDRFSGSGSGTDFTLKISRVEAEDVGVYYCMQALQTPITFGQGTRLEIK
notes: Soluble Fab
B7: H38L54 (Fab, V domains shown)
VH: B1 VH with T26G, A102G
VL: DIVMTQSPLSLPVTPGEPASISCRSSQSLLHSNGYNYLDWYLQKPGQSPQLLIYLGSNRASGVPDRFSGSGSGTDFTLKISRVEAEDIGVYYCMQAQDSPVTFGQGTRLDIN
notes: Soluble Fab
B8: H37L45 (Fab, V domains shown)
VH: B1 VH with T26G
VL: DIVMTQSPVSLAVTPGEPASISCRSSQSLLHSNGYNYLDWYLQKPGQSPQLLIYLGSTRASGVPDRFSGSGSGTDFTLKINRVEAEDVGVYYCMQALQSPFTFGGGTKVQIK
notes: Soluble Fab
B9: H40L53 (Fab, V domains shown)
VH: B1 VH
VL: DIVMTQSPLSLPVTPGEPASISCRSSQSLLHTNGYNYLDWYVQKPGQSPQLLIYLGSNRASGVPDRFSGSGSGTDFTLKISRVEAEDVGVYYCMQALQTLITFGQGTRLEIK
notes: Soluble Fab
B10: H37L47 (Fab, V domains shown)
VH: B1 VH with T26G
VL: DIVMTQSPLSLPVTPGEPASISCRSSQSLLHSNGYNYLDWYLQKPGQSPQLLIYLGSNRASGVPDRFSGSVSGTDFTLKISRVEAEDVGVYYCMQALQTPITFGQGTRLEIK
notes: Soluble Fab
B11: H42L38 (Fab, V domains shown)
VH: B1 VH with G10A, V11M, T26G, T28P
VL: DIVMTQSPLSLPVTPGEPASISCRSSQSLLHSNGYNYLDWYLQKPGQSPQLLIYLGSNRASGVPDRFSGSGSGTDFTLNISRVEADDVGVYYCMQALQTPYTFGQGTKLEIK
notes: Soluble Fab
B12: H40L42 (Fab, V domains shown)
VH: B1 VH
VL: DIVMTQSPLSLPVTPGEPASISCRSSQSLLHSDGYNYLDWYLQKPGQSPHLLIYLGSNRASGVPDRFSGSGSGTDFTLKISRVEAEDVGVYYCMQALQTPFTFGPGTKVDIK
notes: Soluble Fab
B13: H37L41 (Fab, V domains shown)
VH: B1 VH with T26G
VL: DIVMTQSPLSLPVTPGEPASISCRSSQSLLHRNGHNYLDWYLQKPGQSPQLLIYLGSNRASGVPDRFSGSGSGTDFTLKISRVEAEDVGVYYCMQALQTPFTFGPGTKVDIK
notes: Soluble Fab
B14: H40L52 (Fab, V domains shown)
VH: B1 VH
VL: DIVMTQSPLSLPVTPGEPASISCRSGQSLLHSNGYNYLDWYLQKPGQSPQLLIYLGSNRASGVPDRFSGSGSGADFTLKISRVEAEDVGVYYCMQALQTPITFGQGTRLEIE
notes: Soluble Fab
B15: H38L39 (Fab, V domains shown)
VH: B1 VH with T26G, A102G
VL: DIVMTQSPPSLPVTPGEPASISCRSSQSLLHTNGYNYLDWYLQKPGQSPQLLIYLGSNRASGVPDRFSGSGSGTDFTLTISRVEAEDVGVFYCMQALEPPYTFGQGTKLEIK
notes: Soluble Fab
B16: H36L35 (Fab, V domains shown)
VH: B1 VH with T26G, N31S
VL: not shown
notes: Soluble Fab
B17: H37L44 (Fab, V domains shown)
VH: B1 VH with T26G
VL: B8 VL with Q110E
notes: Soluble Fab
B18: H37L50 (Fab, V domains shown)
VH: B1 VH with T26G
VL: not shown
notes: Soluble Fab, clone B
B19: H46L16 (Fab, V domains shown)
VH: QVQLVESGGGVVQPGRSLRLSCAASGFTFSNFNMHWVRQAPGKGLEWVALISYDGSNKNYADSVKGRFTISRDNSKNTLFLQMNSLRAEDTAVYYCMVVGAFDYWGQGTLVTVSS
VL: DIQMTQSPSSLSASVGDRVTITCRASQGISSYLAWYQQKPGKVPKLLIYAASTLQSGVPSRFSGSGSGTDFTLTISSLQPEDVATYYCQKYNSAPLTFGGGTKVEIK
notes: Soluble Fab, ITP patient A, clone A
B20: H83L34 (Fab, V domains shown)
VH: QVQLQESGPGLVKPSETLSLTCTVSGGSISSYYWSWIRQPPGKGLEYIGYIYYSGSTDYNPSLKSRVTISVDTSENQFSLKLSSVTAADTAVYYCARSPPVIRPAMDVWGQGTTVTVSS
VL: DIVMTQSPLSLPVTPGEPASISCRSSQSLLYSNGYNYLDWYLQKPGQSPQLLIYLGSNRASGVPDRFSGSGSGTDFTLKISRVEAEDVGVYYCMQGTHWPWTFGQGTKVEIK
notes: Soluble Fab
B21: H39L43 (Fab, V domains shown)
VH: QVQLVESGGGVVQPGRSLRLSCAASGFTFSNYAMHWVRQAPGKGLEWVAVISYDGSNKYYADSVKGRFTISRDNSKNTLYLQMNSLRPEDTAVYYCARGGVAAFDYWGQGTLVTV
VL: not shown
notes: Soluble Fab
B22: H39L44 (Fab, V domains shown)
VH: B21 VH
VL: B8 VL with Q110E
notes: Soluble Fab
B23: H39L46 (Fab, V domains shown)
VH: B21 VH
VL: DIVMTQSPLSLPVTPGEPASISCRSSQSLLHSNGNNYLDWYLQKPGQSPQLLIYLASNRASGVPDRFSGSGSGTDFTLKISRVEPEDVGLYYCMQALQTPLTFGGGSKVEIK
notes: Soluble Fab
B24: H39L37 (Fab, V domains shown)
VH: B21 VH
VL: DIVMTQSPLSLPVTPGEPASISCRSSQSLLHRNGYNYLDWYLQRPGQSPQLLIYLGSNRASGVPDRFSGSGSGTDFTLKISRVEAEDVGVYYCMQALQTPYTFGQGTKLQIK
notes: Soluble Fab
B25: H48L24 (Fab, V domains shown)
VH: QVQLVESGGGVVQPGRSLRLSCAASGFTISNYHIHWVRQAPGKGLEWVAFISYDGSNKYYADSVKGRFTISRDNSKNTLFLQMNSLTTEDTAVYYCAIVGPFDYRGQGTLVTVSS
VL: DIQLTQSPTFLSASVGDRVTITCRASQGISRYLAWYQQKPGKAPKLLIYAASTLQSGVPSRFSGSGSGTDFTLTFSSLQPEDFATYYCQQLNSYPFTFGGGTTVEIK
notes: Soluble Fab, clone A

biological target: T1, GPIa/IIa on a stable K562 cell line (UniProt P17301 30-1181; P05556 21-798, limits assumed); assay: flow cytometry on K562 cells expressing GPIa/IIa
T1 construct: whole, on cells; also called K562 cell line expressing GPIa/IIa

Row | binding result | Binder
1 | no binding | B1
2 | no binding | B2
3 | no binding | B3
4 | no binding | B4
5 | no binding | B5
6 | no binding | B6
7 | no binding | B7
8 | no binding | B8
9 | no binding | B9
10 | no binding | B10
11 | no binding | B11
12 | no binding | B12
13 | no binding | B13
14 | no binding | B14
15 | no binding | B15
16 | no binding | B16
17 | no binding | B17
18 | no binding | B18
19 | no binding | B19
20 | no binding | B20
21 | no binding | B21
22 | no binding | B22
23 | no binding | B23
24 | no binding | B24
25 | no binding | B25

biological target: T2, GPIIb/IIIa on intact human platelets (human, UniProt P08514 32-1039; P05106 27-788); assay: immunoprecipitation from biotinylated platelets; agrees with ELISA and Glanzmann platelet flow cytometry;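 further: precipitated biotin-labelled platelet membrane proteins visualized with biotinylated horseradish peroxidase-avidin complexes, scored for polypeptides behaving like GPIIb/IIIa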
T2 construct: whole, on cells; also called platelet GPIIb/IIIa; αIIbβ3
Description: Precipitated, biotinylated platelet membrane proteins were detected with biotinylated horseradish peroxidase-avidin complexes (ABC Staining Kit, Pierce).

Row | binding result | Binder
26 | no binding | B1
27 | no binding | B2
28 | no binding | B3
29 | no binding | B4
30 | no binding | B5
31 | no binding | B6
32 | no binding | B7
33 | no binding | B8
34 | no binding | B9
35 | no binding | B10
36 | no binding | B11
37 | no binding | B12
38 | no binding | B13
39 | no binding | B14
40 | no binding | B15
41 | no binding | B16
42 | no binding | B17
43 | no binding | B18
44 | no binding | B19
45 | no binding | B20
46 | no binding | B21
47 | no binding | B22
48 | no binding | B23
49 | no binding | B24
50 | no binding | B25
